Results: FireProtDB (doi:10.1016/j.bbapap.2007.05.016)
“And” between values parts separate entries of the source, which are not always exact repeats. Identical values can stand only once.

Settings: Streptomyces sp. (strain N174), Thermal, Fluorescence, reversible: No, whole UniProt chain shown

B1: Chitosanase wild type, P33665 (protein)
chain: MHSQHRTARIALAVVLTAIPASLATAGVGYASTQASTAVKAGAGLDDPHKKEIAMELVSSAENSSLDWKAQYKYIEDIGDGRGYTGGIIGFCSGTGDMLELVQHYTDLEPGNILAKYLPALKKVNGSASHSGLGTPFTKDWATAAKDTVFQQAQNDERDRVYFDPAVSQAKADGLRALGQFAYYDAIVMHGPGNDPTSFGGIRKTAMKKARTPAQGGDETTYLNAFLDARKAAMLTEAAHDDTSRVDTEQRVFLKAGNLDLNPPLKWKTYGDPYVINS
With B1 the Tm (pH 4.5, Sodium acetate 50 mM) was 53.5 °C and 54 °C, the Tm (pH 4.5, Sodium acetate 150 mM) was 44.4 °C and the Tm (pH 4.75, Sodium phosphate 50 mM) was 53.7 °C. It also gave a Tm (pH 7, Sodium phosphate 50 mM) of 41.3 °C.
